Measured values published in patent publication US20200299380A1 (published 2020).

T1: human ULBP-3-Fc (R&D systems) (human, UniProt Q9BZM4 30-217, limits assumed)
T1 construct: Bought; not shown: Fc of the bought fusion protein
T1 sequence (looked up): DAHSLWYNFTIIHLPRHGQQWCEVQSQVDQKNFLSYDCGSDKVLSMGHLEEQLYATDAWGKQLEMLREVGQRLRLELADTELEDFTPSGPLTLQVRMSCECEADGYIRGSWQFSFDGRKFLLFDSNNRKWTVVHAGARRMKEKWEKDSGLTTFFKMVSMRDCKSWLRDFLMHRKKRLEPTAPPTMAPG

T2: MICB-Fc (R&D Systems 1599-MB) (human, UniProt Q29980 23-298, limits assumed)
T2 construct: Bought; also called human MICB-Fc; not shown: Fc of the bought fusion protein
T2 sequence: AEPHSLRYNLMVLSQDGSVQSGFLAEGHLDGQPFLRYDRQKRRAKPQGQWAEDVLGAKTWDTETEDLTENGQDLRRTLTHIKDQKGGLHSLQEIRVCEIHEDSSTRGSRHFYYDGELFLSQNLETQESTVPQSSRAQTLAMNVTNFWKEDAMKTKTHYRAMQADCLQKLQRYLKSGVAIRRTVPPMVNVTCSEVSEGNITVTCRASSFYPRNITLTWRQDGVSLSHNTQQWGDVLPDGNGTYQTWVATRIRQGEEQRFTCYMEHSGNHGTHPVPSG

T3: MICA*001 expressed at the cell surface (human, UniProt Q29983 24-297)
T3 sequence: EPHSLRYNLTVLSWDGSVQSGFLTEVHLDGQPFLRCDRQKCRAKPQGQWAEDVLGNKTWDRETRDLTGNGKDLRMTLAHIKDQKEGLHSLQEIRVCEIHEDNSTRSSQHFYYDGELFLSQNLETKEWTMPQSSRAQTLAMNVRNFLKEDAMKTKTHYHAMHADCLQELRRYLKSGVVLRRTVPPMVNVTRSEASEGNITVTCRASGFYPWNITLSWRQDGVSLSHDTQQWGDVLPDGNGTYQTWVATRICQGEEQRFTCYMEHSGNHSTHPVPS

T4: MICA*007 expressed at the cell surface (human, UniProt Q29983 24-297)
T4 construct: also called C1R-MICA*007; C1R-MICA*07
T4 chain: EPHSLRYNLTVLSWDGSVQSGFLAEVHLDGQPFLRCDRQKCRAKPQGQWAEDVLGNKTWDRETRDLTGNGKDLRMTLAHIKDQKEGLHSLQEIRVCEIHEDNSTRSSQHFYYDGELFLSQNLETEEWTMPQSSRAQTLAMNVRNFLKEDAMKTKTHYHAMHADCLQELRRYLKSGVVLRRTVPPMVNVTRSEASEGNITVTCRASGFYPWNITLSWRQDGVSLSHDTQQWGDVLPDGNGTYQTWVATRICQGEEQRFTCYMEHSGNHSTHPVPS

T5: MICA*008 expressed at the cell surface (human, UniProt Q29983 24-297)
T5 construct: also called C1R-MICA*008; C1R-MICA*08
T5 chain: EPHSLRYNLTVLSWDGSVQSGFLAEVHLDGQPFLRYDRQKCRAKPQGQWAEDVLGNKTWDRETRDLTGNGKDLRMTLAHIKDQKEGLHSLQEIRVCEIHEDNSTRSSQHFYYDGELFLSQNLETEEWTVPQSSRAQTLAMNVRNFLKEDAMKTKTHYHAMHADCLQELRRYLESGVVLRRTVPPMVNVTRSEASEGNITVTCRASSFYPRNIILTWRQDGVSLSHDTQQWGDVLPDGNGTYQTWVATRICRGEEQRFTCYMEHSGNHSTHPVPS


Tests used:
[1] = target: T1, human ULBP-3-Fc (R&D systems); test: SPR, antibody injected over immobilized ULBP-3-Fc
Description: (§1) For cross-binding study, the human ULBP-1-Fc (R&D systems*), MICB-Fc (*), ULBP-2-Fc (*) and ULBP-3-Fc (*) recombinant proteins were covalently immobilized respectively on the flow cell one to four of a CM5 sensorchip. Anti-MICA antibodies (at a constant concentration of 10 μg/ml) were injected for 2 minutes at a flow rate of 10 μl/min onto the four flow cells in parallel. After each cycle, Sensorchip was regenerated by a five second injection of appropriate regeneration buffer.

[2] = target: T2, MICB-Fc (R&D Systems 1599-MB); test: SPR, antibody at 10 µg/ml injected over immobilized MICB-Fc
Description: as §1

[3] = target: T3, MICA*001 expressed at the cell surface; test: cell-based or functional assay
[4] = target: T4, MICA*007 expressed at the cell surface; test: flow cytometry on C1R transfectant cells, 4-parameter logistic fit
[5] = target: T2, MICB-Fc (R&D Systems 1599-MB); test: SPR, antibody injected over immobilized MICB-Fc
Description: as §1

[6] = target: T5, MICA*008 expressed at the cell surface; test: flow cytometry on C1R transfectant cells, 4-parameter logistic fit

binding result [1] | binding result [2] | CDC: EC50 of the increase in dead (7-AAD positive) Raji-MICA*01 cells with human complement [3] [µg/mL] | EC50 [4] [µg/mL] | binding result [5] | EC50 [6] [µg/mL] | Binder
no binding (tested: 10 µg/ml) | binds | – | – | – | – | CHG1-M-MIA-16A8 (antibody, V domains shown, also called CHG1-M-MIA2-16A8; chimeric anti-MICA 16A8) VH: EVQLVESGGGLVKPGGSLKLSCAASGFTFSRYAMSWVRQTPEKRLEWVATIFSGGSYTYYPDSVKGRFTISRDNANNTLYLQMSSLKAEDTAMYFCARPNWERTFDYWGQGTTLTVSS VL: not shown
no binding (tested: 10 µg/ml) | binds | 1.01 | 1.23 | – | – | CHG1-M-MIA-6E4 (antibody, V domains shown, also called chimeric anti-MICA 6E4) VH: EVQLVESGGALVKPGGSLKLSCAASGFTFSYYAMSWVRQTPEKRLEWVATISRGGNYIYYTDSVKGRFTISRDNAKNTLYLQMTSLRSEDTAMFYCASISDYDGAWLAYWGQGTTLTVSS VL: DVLMTQTPLSLPVSLGDQASISCRSSQSIIHTNGNTYLEWYLQKPGQSPKLLIYKISNRFSGVPDRFSGSGSGTDFTLKISRVEAEDLGVYYCFQGSHVPWTFGGGTKLEIKR
no binding (tested: 10 µg/ml) | – | 0.97 | 0.4 | no binding (tested: 10 µg/ml) | 0.13 | CHG1-M-MIA-20C6 (antibody, V domains shown, also called chimeric anti-MICA 20C6) VH: QITLKESGPGILKPSQTLSLTCSFSGFSLSTSGMGVGWIRQPSGKGLEWLAHIWWDDDKYYNPSLKSQLTISKDTSRNQVFLRITSVDTADTATYYCARRTQGYFDYWGQGTTLTVSS VL: DIVMTQSPATLSVTPGDRVSLSCRASQSISDYLHWYQQKSHESPRLLIKYASQSISGIPSRFSGSGSGSDFTLSINSVEPEDVGVYYCQNGHSFPWTFGGGTKLEIKR
